According to US10947523B2, “Biotechnological production of L-tryptophan” (Technische Universitaet Hamburg, priority 2017, dated 2021):
Changes are numbered by the printed parent chain. Names may count otherwise.

Tests used:
[1] = biological target: T1, ScTrpC (Saccharomyces cerevisiae, UniProt P00937); assay: Effect of anthranilate on IGPs activity of TrpC; assay type: biochemical; settings: FIG. 7
T1 sequence (P00937 1-484): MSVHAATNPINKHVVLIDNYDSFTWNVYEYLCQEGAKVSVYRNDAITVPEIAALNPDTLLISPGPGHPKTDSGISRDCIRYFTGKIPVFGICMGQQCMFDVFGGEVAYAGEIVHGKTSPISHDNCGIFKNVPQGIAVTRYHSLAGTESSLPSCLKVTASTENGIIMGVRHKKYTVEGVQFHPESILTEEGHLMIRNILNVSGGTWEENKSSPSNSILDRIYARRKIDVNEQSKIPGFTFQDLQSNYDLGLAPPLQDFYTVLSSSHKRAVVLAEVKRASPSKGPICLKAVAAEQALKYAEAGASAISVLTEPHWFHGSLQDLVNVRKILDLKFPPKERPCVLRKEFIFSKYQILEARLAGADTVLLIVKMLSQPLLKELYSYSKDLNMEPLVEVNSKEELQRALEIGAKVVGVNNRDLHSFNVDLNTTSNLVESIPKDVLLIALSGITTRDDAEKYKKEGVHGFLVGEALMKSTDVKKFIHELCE

[2] = biological target: T2, 6His-eIGPs (Escherichia coli, UniProt P00909); assay: IGPs enzyme assay, inhibition by anthranilate; assay type: biochemical; settings: isolated IGPs domain, N-terminal His-tag
T2 construct: made in house; host or cells: E. coli Top10
Method: (§3) The activity of IGPs from E. coli was measured by monitoring the formation of IGP via absorbance at 278 nm [23] with a molar extinction coefficient value of 5500 M^−1 cm^−1 [24]. Assays were performed in 50 mM HEPPS pH 7.5, 4 mM EDTA at 30° C. with 20-25 μg/mL of purified enzymes in cuvettes. To investigate the effect of anthranilate on the activity of IGPs, the activities were measured in the presence of different concentrations of anthranilate. Unless stated otherwise, the reactions were started by adding 180 μM of the substrate CdRP. […] The concentration of the synthesized CdRP in the stock solution was determined by measuring the concentrations of the product IGP with completely converted reactions.

[3] = biological target: T3, 6His-TrpC (Escherichia coli, UniProt P00909); assay: IGPs enzyme assay, inhibition by anthranilate; assay type: biochemical
T3 construct: inserting the PCR products amplified from E. coli S028 with primers EcoRI-6H-trpC and trpC-XbaI; made in house; host or cells: E. coli Top10
Method: as §3
In order to figure out whether the PRAi domain has an influence on the inhibition resistance of eIGPs, the effect of anthranilate on the activity of IGPs in the form of eIGPs-PRAi (6His-TrpC) was tested.

[4] = biological target: T4, ScIGPs (ScTrpC without anthranilate synthase II domain) (Saccharomyces cerevisiae, UniProt P00937); assay: Effect of anthranilate on IGPs activity; assay type: biochemical; settings: anthranilate synthase II domain removed, FIG. 8
T4 construct: ScIGPs=ScTrpC without anthranilate synthase II domain
T4 sequence (P00937 215-484 limits assumed): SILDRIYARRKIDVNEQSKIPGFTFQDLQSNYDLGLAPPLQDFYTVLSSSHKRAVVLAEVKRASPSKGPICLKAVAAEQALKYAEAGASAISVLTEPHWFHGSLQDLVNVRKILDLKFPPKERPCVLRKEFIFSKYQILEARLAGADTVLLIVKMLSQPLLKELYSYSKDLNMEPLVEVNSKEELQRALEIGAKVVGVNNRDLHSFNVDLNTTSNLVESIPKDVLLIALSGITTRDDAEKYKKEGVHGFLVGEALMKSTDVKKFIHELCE
Source text: FIG. 8. Effects of anthranilate on the activities of ScTrpC and ScIGPs (ScIGPs=ScTrpC without anthranilate synthase II domain).

[5] = biological target: T5, eIGPs-6His (Escherichia coli, UniProt P00909); assay: IGPs enzyme assay, inhibition by anthranilate; assay type: biochemical
T5 construct: made in house; host or cells: E. coli BL21
Method: (§1) The activity of IGPs from E. coli was measured by monitoring the formation of IGP via absorbance at 278 nm with a molar extinction coefficient value of 5500 M^−1 cm^−1 [24]. Assays were performed in 50 mM HEPPS pH 7.5, 4 mM EDTA at 30° C. with 20-25 μg/mL of purified enzymes in cuvettes. To investigate the effect of anthranilate on the activity of IGPs, the activities were measured in the presence of different concentrations of anthranilate. Unless stated otherwise, the reactions were started by adding 180 μM of the substrate CdRP. The synthesis of CdRP was performed by following the improved method reported by Kirschner et al.. The concentration of the synthesized CdRP in the stock solution was determined by measuring the concentrations of the product IGP with completely converted reactions.
To elucidate the effect of anthranilate on the enzyme activity of eIGPs, the catalytic activity of the isolated eIGPs (eIGPs-6His) was examined in the presence of different concentrations of anthranilate. […] The inhibition constant (IC50, 50% inhibitory concentration) of eIGPs-6His was measured to be about 0.70 mM.

[6] = biological target: T6, eIGPs mutant S60G (Escherichia coli, UniProt P00909, S61G); assay: IGPs enzyme assay, inhibition by anthranilate; assay type: biochemical; settings: read-out: activity of mutant S60G inhibited
T6 construct: made in house; host or cells: E. coli BL21
T6 sequence (P00909 2-260 S61G): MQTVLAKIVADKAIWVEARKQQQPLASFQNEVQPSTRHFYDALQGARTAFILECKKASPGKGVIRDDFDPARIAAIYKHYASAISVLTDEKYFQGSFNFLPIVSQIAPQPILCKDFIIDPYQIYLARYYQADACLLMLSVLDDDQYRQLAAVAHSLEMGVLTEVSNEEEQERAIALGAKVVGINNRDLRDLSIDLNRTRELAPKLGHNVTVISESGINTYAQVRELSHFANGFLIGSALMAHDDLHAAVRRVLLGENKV
Method: as §1
(§2) […]. Therefore, the effect of anthranilate on the activity of this mutants was not investigated. […] […].

[7] = biological target: T7, eIGPs mutant S60A (Escherichia coli, UniProt P00909, S61A); assay: IGPs enzyme assay, inhibition by anthranilate; assay type: biochemical
T7 construct: made in house; host or cells: E. coli BL21
T7 sequence (P00909 2-260 S61A): as the sequence (P00909 2-260 S61G) above, with G60A counted along it
Method: as §1, §2

[8] = biological target: AgTrpC (Aspergillus niger, UniProt P05328); assay: Effect of anthranilate on IGPs activity of TrpC; assay type: biochemical; settings: FIG. 7
Sequence of AgTrpC (P05328 other isoform, or with tags, fused parts or gaps with the stated changes): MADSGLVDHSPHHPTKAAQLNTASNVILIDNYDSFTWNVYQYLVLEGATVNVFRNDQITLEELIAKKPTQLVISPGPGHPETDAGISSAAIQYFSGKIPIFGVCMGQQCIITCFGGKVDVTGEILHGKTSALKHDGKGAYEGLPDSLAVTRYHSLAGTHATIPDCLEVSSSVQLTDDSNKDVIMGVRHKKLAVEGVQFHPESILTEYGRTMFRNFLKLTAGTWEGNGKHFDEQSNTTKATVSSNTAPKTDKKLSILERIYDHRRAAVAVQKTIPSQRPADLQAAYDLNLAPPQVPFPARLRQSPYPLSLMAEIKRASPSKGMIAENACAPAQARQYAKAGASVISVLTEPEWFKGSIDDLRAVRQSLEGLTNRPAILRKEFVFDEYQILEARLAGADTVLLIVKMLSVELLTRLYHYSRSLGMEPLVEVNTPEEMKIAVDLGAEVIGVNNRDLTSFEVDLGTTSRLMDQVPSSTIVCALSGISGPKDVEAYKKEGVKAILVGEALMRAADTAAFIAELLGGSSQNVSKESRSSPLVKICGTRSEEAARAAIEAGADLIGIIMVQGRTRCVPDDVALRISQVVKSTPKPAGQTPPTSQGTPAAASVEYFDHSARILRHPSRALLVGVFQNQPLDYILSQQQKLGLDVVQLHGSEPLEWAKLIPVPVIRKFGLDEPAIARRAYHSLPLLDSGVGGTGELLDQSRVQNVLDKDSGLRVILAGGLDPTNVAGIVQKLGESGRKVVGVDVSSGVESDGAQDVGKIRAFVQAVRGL

[9] = Specific activities and kinetic constants of TrpC WT and TrpC QVFQ; assay type: biochemical, Escherichia coli
Method: as §1

[10] = Enzyme assay of wild-type and mutant eIGPs (specific activity); assay type: biochemical, Escherichia coli; settings: for anthranilate resistance / sensitivity compared with wild-type eIGPs (in words): FIG. 3; for activity relative to the wild-type enzyme: 18 μM CdRP, absence of anthranilate; for specific activity compared with wild type in the presence of anthranilate: more than 0.1 mM anthranilate, 180 μM CdRP
Method: as §1, §2

[11] = two-domain form, reference [31]; cited from earlier work
[12] = SDS-PAGE analysis, data not shown
[13] = Michaelis constants of 6His-TrpC without and with anthranilate; assay type: biochemical, Escherichia coli
Method: as §1
To identify the mechanism of the inhibition of eIGPs by anthranilate, the effect of the inhibitor on the Michaelis constants of eIGPs was investigated with 6His-TrpC. Various concentration of CdRP (from 2.6 to 260 μM) were used when the reactions carried out in the absence of anthranilate and in the presence of 0.5 mM anthranilate, respectively. […] It is somewhat consistent with the fact that anthranilate has a distinguished binding site from the catalytic site based on the crystal structure analysis.

Molecule: Nc1ccccc1C(=O)O [anthranilate, 2-Aminobenzoic acid]
- regulation of ScTrpC activity by anthranilate [1]: activated
- IC50 [2]: ~400 µM
- mechanism of inhibition ([3]; Lineweaver-Burk, CdRP 2.6 to 260 μM, 0 vs 0.5 mM anthranilate): noncompetitive inhibitor
- IC50 ([3]; eIGPs-PRAi two-domain form): ~1300 µM
- regulation of ScIGPs activity by anthranilate [4]: no activation was observed
- IC50 ([5]; 180 μM CdRP, 30° C., pH 7.5, read-out: inhibition constant (IC50, 50% inhibitory concentration) of eIGPs-6His): ~700 µM
- inhibition at 500 µM ([5]; 0.5 mM anthranilate, read-out: activity of eIGPs inhibited): 46%
- inhibition at 2000 µM [6]: 20%
- IC50 [7]: ~2000 µM
- inhibition at 2000 µM ([7]; read-out: activity of mutant S60A inhibited): 46%
- regulation of AgTrpC activity by anthranilate [8]: activated

B1: QVFQ: E. coli TrpC variant S58Q, P59V, S60F, K61Q, SEQ ID NO: 30 (protein)
chain: MQTVLAKIVADKAIWVEARKQQQPLASFQNEVQPSTRHFYDALQGARTAFILECKKAQVFQGVIRDDFDPARIAAIYKHYASAISVLTDEKYFQGSFNFLPIVSQIAPQPILCKDFIIDPYQIYLARYYQADACLLMLSVLDDDQYRQLAAVAHSLEMGVLTEVSNEEEQERAIALGAKVVGINNRDLRDLSIDLNRTRELAPKLGHNVTVISESGINTYAQVRELSHFANGFLIGSALMAHDDLHAAVRRVLLGENKVCGLTRGQDAKAAYDAGAIYGGLIFVATSPRCVNVEQAQEVMAAAPLQYVGVFRNHDIADVVDKAKVLSLAAVQLHGNEEQLYIDTLREALPAHVAIWKALSVGETLPAREFQHVDKYVLDNGQGGSGQRFDWSLLNGQSLGNVLLAGGLGADNCVEAAQTGCAGLDFNSAVESQPGIKDARLLASVFQTLRAY
modifications: EcTrpC S58Q P59V S60F K61Q
- Specific activities ([9]; Anthranilate 0 mM): 1.886 ± 0.067 µmol/min/mg
- Specific activities ([9]; Anthranilate 0.5 mM): 1.124 ± 0.074 µmol/min/mg
- Specific activities ([9]; Anthranilate 1 mM): 1.152 ± 0.089 µmol/min/mg
- Specific activities ([9]; Anthranilate 2 mM): 0.906 ± 0.022 µmol/min/mg
- Specific activities ([9]; Anthranilate 3 mM): 0.866 ± 0.016 µmol/min/mg
- Km ([9]; apparent, substrate CdRP): 6.14 ± 0.04 µM
- kcat ([9]; apparent, substrate CdRP): 0.027 ± 0.001 s⁻¹
- inhibition by anthranilate compared to wildtype TrpC (in words) ([9]; increasing anthranilate concentrations, FIG. 12): significantly less inhibited by anthranilate

B2: L188F (protein)
chain: B1 chain with Q58S, V59P, F60S, Q61K, L188F
modifications: EcTrpC L188F
- Specific activity in the absence of anthranilate ([10]; CdRP 180 μM): 1.04 ± 0.02 µmol/min/mg
- anthranilate resistance / sensitivity compared with wild-type eIGPs (in words) [10]: slightly increased

B3: S60G (protein)
chain: B1 chain with Q58S, V59P, F60G, Q61K
modifications: EcTrpC S60G
- activity relative to the wild-type enzyme [10]: 52%
- Specific activity in the absence of anthranilate ([10]; CdRP 18 μM): 1.13 ± 0.02 µmol/min/mg
- Specific activity in the absence of anthranilate ([10]; CdRP 60 μM): 1.75 ± 0.03 µmol/min/mg
- Specific activity in the absence of anthranilate ([10]; CdRP 180 μM): 1.92 ± 0.02 µmol/min/mg
- anthranilate resistance / sensitivity compared with wild-type eIGPs (in words) [10]: significantly improved
- Km ranking among WT, S60A, S60G ([10]; from rates of increased absorbance): largest Km
- specific activity compared with wild type in the presence of anthranilate [10]: higher than that of the wild type

B4: S60A: E. coli IGPs mutant S60A, SEQ ID NO: 3 (protein)
chain: B1 chain with Q58S, V59P, F60A, Q61K
modifications: EcTrpC S60A
- activity relative to the wild-type enzyme [10]: 74%
- Specific activity in the absence of anthranilate ([10]; CdRP 18 μM): 1.60 ± 0.03 µmol/min/mg
- Specific activity in the absence of anthranilate ([10]; CdRP 60 μM): 2.05 ± 0.06 µmol/min/mg
- Specific activity in the absence of anthranilate ([10]; CdRP 180 μM): 2.13 ± 0.01 µmol/min/mg
- anthranilate resistance / sensitivity compared with wild-type eIGPs (in words) [10]: significantly improved
- specific activity compared with wild type in the presence of anthranilate [10]: higher than that of the wild type
- efficiency (Kcat/Km) relative to the wild-type enzyme [11]: about 30%

B5: I8V (protein)
chain: B1 chain with I8V, Q58S, V59P, F60S, Q61K
modifications: EcTrpC I8V
- Specific activity in the absence of anthranilate ([10]; CdRP 180 μM): 0.90 ± 0.03 µmol/min/mg
- anthranilate resistance / sensitivity compared with wild-type eIGPs (in words) [10]: slightly increased
- solubility of the expressed protein (in words) [12]: poorer solubility than the wild-type eIGPs

B6: 6His-TrpC: E. coli TrpC, two-domain form, 6His-tag at the N-terminus (protein, UniProt P00909 1-453, looked up)
Tryptophan biosynthesis …: MMQTVLAKIVADKAIWVEARKQQQPLASFQNEVQPSTRHFYDALQGARTAFILECKKASPSKGVIRDDFDPARIAAIYKHYASAISVLTDEKYFQGSFNFLPIVSQIAPQPILCKDFIIDPYQIYLARYYQADACLLMLSVLDDDQYRQLAAVAHSLEMGVLTEVSNEEEQERAIALGAKVVGINNRDLRDLSIDLNRTRELAPKLGHNVTVISESGINTYAQVRELSHFANGFLIGSALMAHDDLHAAVRRVLLGENKVCGLTRGQDAKAAYDAGAIYGGLIFVATSPRCVNVEQAQEVMAAAPLQYVGVFRNHDIADVVDKAKVLSLAAVQLHGNEEQLYIDTLREALPAHVAIWKALSVGETLPAREFQHVDKYVLDNGQGGSGQRFDWSLLNGQSLGNVLLAGGLGADNCVEAAQTGCAGLDFNSAVESQPGIKDARLLASVFQTLRAY
modifications: N-terminal His6 tag
notes: E. coli TrpC, two-domain form, 6His-tag at the N-terminus
- Km ([13]; 0.5 mM anthranilate): 1.53 µM
- Vmax ([13]; 0.5 mM anthranilate): 2.63 µmol/min/mg
- Km ([13]; no anthranilate): 1.57 µM
- Vmax ([13]; no anthranilate): 3.64 µmol/min/mg
